In data set [1] the test system is HeLa Kyoto. As to the kind of experiment: thermal stability score vs G1/S (z-score of summed log2 fold changes over temperatures); higher = more thermally stable than in G1/S.
Data set [2] deals with HeLa Kyoto. As to the kind of experiment: melting temperature (median over replicates), in situ; higher = more thermally stable.
Where [3] appears, read: cell cycle stage: early G1 (4.5 h after nocodazole release).
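Throughout, for melting temperature (median over replicates), in situ: HeLa Kyoto cells synchronized by double thymidine or nocodazole block, proteins quantified by TMT10plex mass spectrometry, three independent biological replicates.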
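Throughout, for thermal stability score vs G1/S (z-score of summed log2 fold changes over temperatures): synchronized HeLa Kyoto cells, proteins quantified by TMT10plex mass spectrometry, three biological replicates, mitosis taken 0.5 h after nocodazole release, G1/S directly after double thymidine block.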

Turning to “MAAVVAKREGPPFISEAAVRGNAAVLDYCRTSVSALSGATAGILGLTGLYGFIFYLLASVLLSLLLILKAGRRWNKYFKSRRPLFTGGLIGGLFTYVLFWTFLYGMVHVY [EMC6]”, the thermal stability score was 1.03 in the data set on HeLa Kyoto [1] (setting [3]) and -0.846 with HeLa Kyoto [1] (cell cycle stage: mitosis). The melting temperature in the data set with HeLa Kyoto [2] (cell cycle stage: G1/S) stood at 54.6 °C; in the data set on HeLa Kyoto [2] (cell cycle stage: mitosis), 54.1 °C.
The like results for “MTAEETVNVKEVEIIKLILDFLNSKKLHISMLALEKESGVINGLFSDDMLFLRQLILDGQWDEVLQFIQPLECMEKFDKKRFRYIILKQKFLEALCVNNAMSAEDEPQHLEFTMQEAVQCLHALEEYCPSKDDYSKLCLLLTLPRLTNHAEFKDWNPSTARVHCFEEACVMVAEFIPADRKLSEAGFKASNNRLFQLVMKGLLYECCVEFCQSKATGEEITESEVLLGIDLLCGNGCDDLDLSLLSWLQNLPSSVFSCAFEQKMLNIHVDKLLKPTKAAYADLLTPLISKLSPYPSSPMRRPQSADAYMTRSLNPALDGLTCGLTSHDKRISDLGNKTSPMSHSFANFHYPGVQNLSRSLMLENTECHSIYEESPERDTPVDAQRPIGSEILGQSSVSEKEPANGAQNPGPAKQEKNELRDSTEQFQEYYRQRLRYQQHLEQKEQQRQIYQQMLLEGGVNQEDGPDQQQNLTEQFLNRSIQKLGELNIGMDGLGNEVSALNQQCNGSKGNGSNGSSVTSFTTPPQDSSQRLTHDASNIHTSTPRNPGSTNHIPFLEESPCGSQISSEHSVIKPPLGDSPGSLSRSKGEEDDKSKKQFVCINILEDTQAVRAVAFHPAGGLYAVGSNSKTLRVCAYPDVIDPSAHETPKQPVVRFKRNKHHKGSIYCVAWSPCGQLLATGSNDKYVKVLPFNAETCNATGPDLEFSMHDGTIRDLAFMEGPESGGAILISAGAGDCNIYTTDCQRGQGLHALSGHTGHILALYTWSGWMIASGSQDKTVRFWDLRVPSCVRVVGTTFHGTGSAVASVAVDPSGRLLATGQEDSSCMLYDIRGGRMVQSYHPHSSDVRSVRFSPGAHYLLTGSYDMKIKVTDLQGDLTKQLPIMVVGEHKDKVIQCRWHTQDLSFLSSSADRTVTLWTYNG [WDR47]” were, in that order, -2.39, -1.92, 54.4 °C and 52.6 °C.
On the same counts, the results for “MTMAAAAVVARGAGARAATAAALRGGCGTAARGRPCAGPARPLCTAPGTAPDMKRYLWERYREAKRSTEELVPSIMSNLLNPDAIFSNNEMSLSDIEIYGFDYDYTLVFYSKHLHTLIFNAARDLLINEHRYPAEIRKYEYDPNFAIRGLHYDVQRAVLMKIDAFHYIQLGTVYRGLSVVPDEEVIEMYEGSHVPLEQMSDFYGKSSHGNTMKQFMDIFSLPEMTLLSCVNEYFLKNNIDYEPVHLYKDVKDSIRDVHIKGIMYRAIEADIEKYICYAEQTRAVLAKLADHGKKMFLITNSPSSFVDKGMSYIVGKDWRDLFDVVIVQAEKPNFFNDKRRPFRKMNEKGVLLWDKIHKLQKGQIYKQGNLYEFLKLTGWRGSRVLYFGDHIYSDLADLTLKHGWRTGAIIPELRSELKIMNTEQYIQTMTWLQTLTGLLEQMQVHRDAESQLVLQEWKKERKEMREMTKSFFNAQFGSLFRTDQNPTYFLRRLSRFADIYMASLSCLLNYDVSHTFYPRRTPLQHELPAWSERPPTFGTPLLQEAQAK [NT5DC3]” are -1.05, -1.22, 53.4 °C and 54 °C.
Turning to “MLCRLGGRWLRPLPALQLWARDLPLAPVPTSGAKRPTLPVWAVAPVSAVHANGWYEALAASSPVRVAEEVLLGVHAATGLPWWGSILLSTVALRGAVTLPLAAYQHYILAKVENLQPEIKTIARHLNQEVAVRANQLGWSKRDARLTYLKNMRRLISELYVRDNCHPFKATVLVWIQLPMWIFMSFALRNLSTGAAHSEGFSVQEQLATGGILWFPDLTAPDSTWILPISVGVINLLIVEICALQKIGMSRFQTYITYFVRAMSVLMIPIAATVPSSIVLYWLCSSFVGLSQNLLLRSPGFRQLCRIPSTKSDSETPYKDIFAAFNTKFISRK [COX18]”, the thermal stability score in the data set on HeLa Kyoto [1] (setting [3]) was 0.867; in the data set on HeLa Kyoto [1] (cell cycle stage: mitosis), -0.575. In the data set with HeLa Kyoto [2] (cell cycle stage: mitosis), this sequence displayed a melting temperature of 57.1 °C.
For the sequence “MGNPENIEDAYVAVIRPKNTASLNSREYRAKSYEILLHEVPIEGQKKKRKKVLLETKLQGNSEITQGILDYVVETTKPISPANQGIRGKRVVLMKKFPLDGEKMGREASLFIVPSVVKDNTKYTYTPGCPIFYCLQDIMRVCSESSTHFATLTARMLIALDKWLDERHAQSHFIPALFRPSPLERIKTNVINPAYATESGQTENSLHMGYSALEIKSKMLALEKADTCIYNPLFGSDLQYTNRVDKVVINPYFGLGAPDYSKIQIPKQEKWQRSMSSVTEDKERQWVDDFPLHRSACEGDSELLSRLLSERFSVNQLDSDHWAPIHYACWYGKVEATRILLEKGKCNPNLLNGQLSSPLHFAAGGGHAEIVQILLNHPETDRHITDQQGRSPLNICEENKQNNWEEAAKLLKEAINKPYEKVRIYRMDGSYRSVELKHGNNTTVQQIMEGMRLSQETQQYFTIWICSENLSLQLKPYHKPLQHVRDWPEILAELTNLDPQRETPQLFLRRDVRLPLEVEKQIEDPLAILILFDEARYNLLKGFYTAPDAKLITLASLLLQIVYGNYESKKHKQGFLNEENLKSIVPVTKLKSKAPHWTNRILHEYKNLSTSEGVSKEMHHLQRMFLQNCWEIPTYGAAFFTGQIFTKASPSNHKVIPVYVGVNIKGLHLLNMETKALLISLKYGCFMWQLGDTDTCFQIHSMENKMSFIVHTKQAGLVVKLLMKLNGQLMPTERNS [KRIT1]”, the figures for the thermal stability score with HeLa Kyoto [1] (setting [3]) and in the data set on HeLa Kyoto [1] (cell cycle stage: mitosis) were -0.252 and 0.0145, respectively.
On the same counts, the results for “MALSRVCWARSAVWGSAVTPGHFVTRRLQLGRSGLAWGAPRSSKLHLSPKADVKNLMSYVVTKTKAINGKYHRFLGRHFPRFYVLYTIFMKGLQMLWADAKKARRIKTNMWKHNIKFHQLPYREMEHLRQFRQDVTKCLFLGIISIPPFANYLVFLLMYLFPRQLLIRHFWTPKQQTDFLDIYHAFRKQSHPEIISYLEKVIPLISDAGLRWRLTDLCTKIQRGTHPAIHDILALRECFSNHPLGMNQLQALHVKALSRAMLLTSYLPPPLLRHRLKTHTTVIHQLDKALAKLGIGQLTAQEVKSACYLRGLNSTHIGEDRCRTWLGEWLQISCSLKEAELSLLLHNVVLLSTNYLGTRR [LETMD1]” are -0.886 and -0.884.
The like results for “MEERERGARSAGAGSPARPPSPRLDVSSDSFDPLLALYAPRLPPIPYPNAPCFNNVAEYESFLRTGVRGGGRGRGRARGAAAGSGVPAAPGPSGRTRRRPDAPAPDPERIQRLRRLMVAKEEGDGAAGAGRRGPGRSRKAPRNVLTRMPLHEGSPLGELHRCIREGVKVNVHIRTFKGLRGVCTGFLVAFDKFWNMALTDVDETYRKPVLGKAYERDSSLTLTRLFDRLKLQDSSKKEADSKSAVEDSTLSRYSQTSTWKLASVWGRADTGRGSHKRSRSVPSSLQASAREESRSELSGRTTRTDGSSVGGTFSRATTLSRGQSRKKKRKPKVDYQQVFTRHINQIFIRGENVLLVHLAQ [LSM11]” were, in that order, 0.976 and 0.837.
On the same counts, the results for “MNRESFAAGERLVSPAYVRQGCEARRSHEHLIRLLLEKGKCPENGWDESTLELFLHELAIMDSNNFLGNCGVGEREGRVASALVARRHYRFIHGIGRSGDISAVQPKAAGSSLLNKITNSLVLDIIKLAGVHTVANCFVVPMATGMSLTLCFLTLRHKRPKAKYIIWPRIDQKSCFKSMITAGFEPVVIENVLEGDELRTDLKAVEAKVQELGPDCILCIHSTTSCFAPRVPDRLEELAVICANYDIPHIVNNAYGVQSSKCMHLIQQGARVGRIDAFVQSLDKNFMVPVGGAIIAGFNDSFIQEISKMYPGRASASPSLDVLITLLSLGSNGYKKLLKERKEMFSYLSNQIKKLSEAYNERLLHTPHNPISLAMTLKTLDEHRDKAVTQLGSMLFTRQVSGARVVPLGSMQTVSGYTFRGFMSHTNNYPCAYLNAASAIGMKMQDVDLFIKRLDRCLKAVRKERSKESDDNYDKTEDVDIEEMALKLDNVLLDTYQDASS [SEPSECS]” are -1.52 and -1.62.
Regarding “MKAIIHLTLLALLSVNTATNQGNSADAVTTTETATSGPTVAAADTTETNFPETASTTANTPSFPTATSPAPPIISTHSSSTIPTPAPPIISTHSSSTIPIPTAADSESTTNVNSLATSDIITASSPNDGLITMVPSETQSNNEMSPTTEDNQSSGPPTGTALLETSTLNSTGPSNPCQDDPCADNSLCVKLHNTSFCLCLEGYYYNSSTCKKGKVFPGKISVTVSETFDPEEKHSMAYQDLHSEITSLFKDVFGTSVYGQTVILTVSTSLSPRSEMRADDKFVNVTIVTILAETTSDNEKTVTEKINKAIRSSSSNFLNYDLTLRCDYYGCNQTADDCLNGLACDCKSDLQRPNPQSPFCVASSLKCPDACNAQHKQCLIKKSGGAPECACVPGYQEDANGNCQKCAFGYSGLDCKDKFQLILTIVGTIAGIVILSMIIALIVTARSNNKTKHIEEENLIDEDFQNLKLRSTGFTNLGAEGSVFPKVRITASRDSQMQNPYSRHSSMPRPDY [MUC13]”, the values for the thermal stability score with HeLa Kyoto [1] (setting [3]) and in the data set with HeLa Kyoto [1] (cell cycle stage: mitosis) were -3.46 and -1.12, respectively.
The like results for “MKLPIFIADAFTARAFRGNPAAVCLLENELDEDMHQKIAREMNLSETAFIRKLHPTDNFAQSSCFGLRWFTPASEVPLCGHATLASAAVLFHKIKNMNSTLTFVTLSGELRARRAEDGIVLDLPLYPAHPQDFHEVEDLIKTAIGNTLVQDICYSPDTQKLLVRLSDVYNRSFLENLKVNTENLLQVENTGKVKGLILTLKGEPGGQTQAFDFYSRYFAPWVGVAEDPVTGSAHAVLSSYWSQHLGKKEMHAFQCSHRGGELGISLRPDGRVDIRGGAAVVLEGTLTA [PBLD]” were, in that order, -0.159 and 0.989.
The like results for “MNSMNPMKPALPPAPHGDGSFAYESVPWQQSATQPAGSLSVVTTVWGVGNATQSQVLGNPMGPAGSPSGSSMMPGVAGGSSALTSPQCLGQQAFAEGGANKGYVQQGVYSRGGYPGAPGFTTGYAGGPGGLGLPSHAARPSTDFTQAAAAAAVAAAAATATATATATVAALQEKQSQELSQYGAMGAGQSFNSQFLQHGGPRGPSVPAGMNPTGIGGVMGPSGLSPLAMNPTRAAGMTPLYAGQRLPQHGYPGPPQAQPLPRQGVKRTYSEVYPGQQYLQGGQYAPSTAQFAPSPGQPPAPSPSYPGHRLPLQQGMTQSLSVPGPTGLHYKPTEQFNGQGASFNGGSVSYSQPGLSGPTRSIPGYPSSPLPGNPTPPMTPSSSVPYMSPNQEVKSPFLPDLKPNLNSLHSSPSGSGPCDELRLTFPVRDGVVLEPFRLQHNLAVSNHVFQLRDSVYKTLIMRPDLELQFKCYHHEDRQMNTNWPASVQVSVNATPLTIERGDNKTSHKPLYLKHVCQPGRNTIQITVTACCCSHLFVLQLVHRPSVRSVLQGLLKKRLLPAEHCITKIKRNFSSGTIPGTPGPNGEDGVEQTAIKVSLKCPITFRRIQLPARGHDCRHIQCFDLESYLQLNCERGTWRCPVCNKTALLEGLEVDQYMLGILIYIQNSDYEEITIDPTCSWKPVPVKPDMHIKEEPDGPALKRCRTVSPAHVLMPSVMEMIAALGPGAAPFAPLQPPSVPAPSDYPGQGSSFLGPGTFPESFPPTTPSTPTLAEFTPGPPPISYQSDIPSSLLTSEKSTACLPSQMAPAGHLDPTHNPGTPGLHTSNLGAPPGPQLHHSNPPPASRQSLGQASLGPTGELAFSPATGVMGPPSMSGAGEAPEPALDLLPELTNPDELLSYLGPPDLPTNNNDDLLSLFENN [ZMIZ2]” were, in that order, 0.174 and 0.237.
